Test results taken from US20130123350, “NUCLEIC ACID MOLECULE CAPABLE OF BINDING TO c-MET AND USE THEREOF” (KANAGAWA PREFECTURAL HOSPITAL ORGANIZATION, published 2013).

Key:
[1] = target: T1, rec-cMet (Recombinant Human HGF R/c-MET/Fc Chimera) (Homo sapiens, UniProt P08581;P08581 SEQ:1-283,SEQ:1-625); assay: ELONA; signal higher than g1; conditions: tags: C-terminal HIEGRMD linker, human IgG Fc (100-330), 6xHis; R&D Systems; chain copies: 2 (inferred, Fc chimera)
Description: (§1) An anti-IgG antibody (trade name: “Human IgG-Fc Antibody”, Bethyl Laboratories) was adsorbed on a 96-well plate (Iwaki, AGC Techno Glass Co., Ltd., Japan), and then was subjected to blocking using 1% bovine serum albumin. Subsequently, 50 μL of the 1 μg/mL rec-cMet was added to the plate. Further, Tris (20 mmol/L), sodium chloride (100 mmol/L), magnesium acetate (0.1 mmol/L) and Triton (registered trademark)-X100 (0.2%) were added to the plate so that their final concentrations would be as shown in the parentheses. The plate was incubated at room temperature for 3 hours, thus causing the rec-cMet to bind to the plate. After the incubation, the plate was washed three times with a washing solution. The composition of the washing solution was as follows: 20 mmol/L Tris, 100 mmol/L sodium chloride, 0.1 mmol/L magnesium acetate, and 0.2% Triton (registered trademark)-X100. As a control, incubation and washing were carried out in the same manner, except that 50 μL of the washing solution was added instead of 50 μL of the rec-cMet.
(§2) Next, a 20-mer polyadenine (poly A) was added to the 3′ end of each of the RNA aptamers. Thus, poly-A-added RNA aptamers were prepared. Each of the poly-A-added RNA aptamers was denatured, and thereafter, the denatured poly-A-added RNA aptamer was mixed with a 20-mer biotinylated polythymine with its 5′ end being biotinylated (740 nmol/L), tRNA (100 μg/mL), and an RNase inhibitor (0.16 units/mL). As a result, complementary binding occurred between the poly A in the poly-A-added RNA aptamer and the polythymine (poly T) in the biotinylated polythymine, whereby a biotin-labeled RNA aptamer was produced. The biotin-labeled RNA aptamer was added to the plate, and the plate was incubated at 4° C. for 30 minutes. Subsequently, the plate was washed, and 0.1 μg/mL HRP-streptavidin (Thermo Fisher Scientific Inc., USA) was added thereto. The plate was then washed, after which a 1-Step Ultra TMB substrate (Thermo Fisher Scientific Inc., USA) was added to the plate to cause color development, and the absorbance at 450 nm was measured.
The binding ability of each of the RNA aptamers to the rec-cMet was examined in the same manner as in Example 1, except that the truncated RNA aptamers were used. Also, the binding ability of the RNA aptamer g1 was examined in the same manner.

[2] = target: T1, rec-cMet (Recombinant Human HGF …); assay: SPR; rec-cMet 100 nM; conditions: tags: C-terminal HIEGRMD linker, human IgG Fc (100-330), 6xHis; R&D Systems; chain copies: 2 (inferred, Fc chimera)
Description: (§3) Using these truncated RNA aptamers, the binding ability thereof to the rec-cMet was examined. The binding ability was analyzed using BIACORE (registered trademark) X (GE Healthcare) in accordance with its instructions for use, with the concentration of the rec-cMet being set to 175 nmol/L. Also, the binding ability of each of the RNA aptamers g1 and g1-trA was examined in the same manner. As a comparative example, the 40N was used, and the binding ability thereof was examined in the same manner.
(§4) The binding ability of each of the RNA aptamers to the rec-cMet was examined in the same manner as in Example 5, except that the above RNA aptamers were used. The concentration of the rec-cMet was set to 100 nmol/L. With the time point at which the introduction of the rec-cMet to the chip was started being 0 seconds, introduction of a buffer was started 60 seconds later.

[3] = target: T1, rec-cMet (Recombinant Human HGF …); assay: SPR; excellent binding; rec-cMet 60 nM; conditions: tags: C-terminal HIEGRMD linker, human IgG Fc (100-330), 6xHis; R&D Systems; chain copies: 2 (inferred, Fc chimera)
Text: as §4, with “fluorinated” for “above”, “60” for “100”, “later. As a comparative example, the same negative control as in Example 6 was used.” for “later.”
FIG. 12 is a graph showing the binding ability of each of the RNA aptamers to the rec-cMet. In FIG. 12, the vertical axis indicates the signal intensity (RU) measured with BIACORE (registered trademark) X. The signal intensity shown in the graph is a value measured at the 60th second when the buffer was introduced. […] By fluorination, these RNA aptamers had acquired RNase resistance and they also maintained the bonding force to the c-Met. Thus, it can be seen that these fluorinated RNA aptamers are particularly suitable for use in vivo and in vitro. All the RNA aptamers maintained equivalent signal values subsequent to the 60th second. Thus, it was confirmed that no decrease in binding ability occurred.

[4] = target: T1, rec-cMet (Recombinant Human HGF …); assay: ELONA; 3' polyA20/biotin-polyT; also SPR FIG. 11; conditions: tags: C-terminal HIEGRMD linker, human IgG Fc (100-330), 6xHis; R&D Systems; chain copies: 2 (inferred, Fc chimera)
Description: as §1, §2

[5] = target: rec-NGFR (Recombinant Human NGF R/TNFRSF16/Fc Chimera) (Homo sapiens, UniProt P08138 SEQ:1-222); assay: ELONA; signal below 40N; conditions: tags: C-terminal DIEGRMD linker, human IgG Fc (100-330), 6xHis; R&D Systems; chain copies: 2 (inferred, Fc chimera)
rec-NGFR (Recombinant Human NGF R/TNFRSF16/Fc Chimera), sequence (P08138 29-250, change not shown): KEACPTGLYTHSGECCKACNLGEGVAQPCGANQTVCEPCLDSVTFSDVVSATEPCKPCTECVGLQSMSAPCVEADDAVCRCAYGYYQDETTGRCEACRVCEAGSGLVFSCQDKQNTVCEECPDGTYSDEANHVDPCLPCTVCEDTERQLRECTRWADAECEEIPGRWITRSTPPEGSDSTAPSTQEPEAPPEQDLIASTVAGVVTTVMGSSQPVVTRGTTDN
Description: as §2
The binding ability of each of the RNA aptamers to the rec-NGFR was examined in the same manner as in Example 1, except that the rec-NGFR was bound to the plate. Also, as a comparative example, the 40N was used, and the binding ability thereof was examined in the same manner.

[6] = target: T1, rec-cMet (Recombinant Human HGF …); assay: SPR; rec-cMet 175 nM; conditions: tags: C-terminal HIEGRMD linker, human IgG Fc (100-330), 6xHis; R&D Systems; chain copies: 2 (inferred, Fc chimera)
Description: as §3

[7] = target: T1, rec-cMet (Recombinant Human HGF …); assay: ELONA; highest binding; Table 2 misnumbers as SEQ 46; also SPR FIG. 11; conditions: tags: C-terminal HIEGRMD linker, human IgG Fc (100-330), 6xHis; R&D Systems; chain copies: 2 (inferred, Fc chimera)
Description: as §1
(§5) Next, a 20-mer polyadenine (poly A) was added to the 3′ end of each of the RNA aptamers. Thus, poly-A-added RNA aptamers were prepared. […] The plate was then washed, after which a 1-Step Ultra TMB substrate (Thermo Fisher Scientific Inc., USA) was added to the plate to cause color development, and the absorbance at 450 nm was measured.

[8] = target: T1, rec-cMet (Recombinant Human HGF …); assay: SPR; rec-cMet 175 nM; also ELISA signal above g1 (FIG. 7); conditions: tags: C-terminal HIEGRMD linker, human IgG Fc (100-330), 6xHis; R&D Systems; chain copies: 2 (inferred, Fc chimera)
Description: as §3

[9] = target: T1, rec-cMet (Recombinant Human HGF …); assay: ELONA; Table 2 misnumbers as SEQ 48; also SPR FIG. 11; conditions: tags: C-terminal HIEGRMD linker, human IgG Fc (100-330), 6xHis; R&D Systems; chain copies: 2 (inferred, Fc chimera)
Description: as §1, §5

[10] = target: T1, rec-cMet (Recombinant Human HGF …); assay: ELONA; high binding; Table 2 misnumbers as SEQ 47; also SPR FIG. 11; conditions: tags: C-terminal HIEGRMD linker, human IgG Fc (100-330), 6xHis; R&D Systems; chain copies: 2 (inferred, Fc chimera)
Description: as §1, §5

T1 sequence (P08581 25-307, change not shown, chain 1 of 2): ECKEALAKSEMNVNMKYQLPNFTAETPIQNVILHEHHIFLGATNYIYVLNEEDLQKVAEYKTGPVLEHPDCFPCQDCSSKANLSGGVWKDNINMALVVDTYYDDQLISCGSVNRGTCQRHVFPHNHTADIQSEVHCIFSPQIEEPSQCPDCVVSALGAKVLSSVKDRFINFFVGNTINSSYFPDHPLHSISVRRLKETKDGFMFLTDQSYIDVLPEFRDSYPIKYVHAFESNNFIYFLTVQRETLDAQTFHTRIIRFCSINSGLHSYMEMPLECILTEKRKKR
T1 sequence (P08581 308-932, change not shown, chain 2 of 2): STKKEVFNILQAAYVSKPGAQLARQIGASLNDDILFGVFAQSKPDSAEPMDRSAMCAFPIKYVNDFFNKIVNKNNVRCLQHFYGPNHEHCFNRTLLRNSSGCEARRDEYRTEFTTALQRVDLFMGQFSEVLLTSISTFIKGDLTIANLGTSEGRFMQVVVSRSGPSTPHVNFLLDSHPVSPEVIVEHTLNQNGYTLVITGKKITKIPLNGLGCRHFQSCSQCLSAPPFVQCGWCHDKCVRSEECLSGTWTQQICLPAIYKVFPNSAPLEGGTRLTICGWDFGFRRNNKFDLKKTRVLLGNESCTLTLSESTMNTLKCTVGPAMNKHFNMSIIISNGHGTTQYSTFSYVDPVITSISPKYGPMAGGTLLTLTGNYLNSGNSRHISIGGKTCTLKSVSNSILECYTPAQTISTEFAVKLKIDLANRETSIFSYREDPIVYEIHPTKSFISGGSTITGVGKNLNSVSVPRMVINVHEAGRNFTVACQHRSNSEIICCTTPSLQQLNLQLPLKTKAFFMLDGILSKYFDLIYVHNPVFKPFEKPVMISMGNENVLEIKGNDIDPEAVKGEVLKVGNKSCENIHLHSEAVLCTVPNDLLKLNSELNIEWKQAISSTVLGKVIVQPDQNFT

B1: g1-d5del (ssRNA)
RNA: GGGACGCUCACGUACGCUAAACACACUGAGAGUUUGACCAGCUAUUAAAUGGGUCGUGACUCAGUGCCUGGACGU
- binding result [1]: binds

B2: g35 (ssRNA)
RNA: GGGACGCUCACGUACGCUAAGAUUUGUGUGAUACCCGACACUCUAACGGGGUAGCAGGGCUCAGUGCCUGGACGUGCAGU
- binding result [2]: binds

B3: g29 2'-F (ssRNA)
RNA: GGGACGCUCACGUACGCUAAACGAGCCGUGAUUGGGUUGGCAACCCUGCUUAUGUGAGGAUCAGUGCCUGGACGUGCAGU
modifications: 2'-F on all C and U
- binding result [3]: binds

B4: g2 (ssRNA)
RNA: GGGACGCUCACGUACGCUAAACCCUGGCGAUCUCCGGCCGGAUACGGGAGAACGAGGUACUCAGUGCCUGGACGUGCAGU
- binding result [4]: binds
- binding result [5]: no binding

Binder: GGGUGAGAGUUUGACCAGCUAUUAAAUGGGUCGUGACUCA (ssRNA) [g1-miniC]
- binding result [6]: binds

B5: g37 (ssRNA)
RNA: GGGACGCUCACGUACGCUAAGGUUUGCUCCGACCGACUAAAGGGAGCCUCUGUCACGAGUUCAGUGCCUGGACGUGCAGU
- binding result [2]: binds

B6: g4 (ssRNA)
RNA: GGGACGCUCACGUACGCUAAUACCGUGAUUCGGGGUGGUAUCCGGUGGACAUCCAGGUCGUCAGUGCCUGGACGUGCAGU
- binding result [4]: binds
- binding result [5]: no binding

B7: g1-u20del (ssRNA)
RNA: GGGCACUGAGAGUUUGACCAGCUAUUAAAUGGGUCGUGACUCAGUGCCUGGACGUG
- binding result [1]: binds

Binder: GGGACUGAGAGUUUGACCAGCUAUUAAAUGGGUCGUGACUCAGU (ssRNA) [g1-miniA]
- Kd [6]: 7.98 nM

B8: g1-d10del (ssRNA)
RNA: GGGACGCUCACGUACGCUAAACACACUGAGAGUUUGACCAGCUAUUAAAUGGGUCGUGACUCAGUGCCUG
- binding result [1]: binds

B9: g38 (ssRNA)
RNA: GGGACGCUCACGUACGCUAACCAGGAGCAUUAGACCGGGGAAAGAAGGAGUACCGUCUGGUCAGUGCCUGGACGUGCAGU
- binding result [2]: binds

B10: g1-u10del (ssRNA)
RNA: GGGACGCUAAACACACUGAGAGUUUGACCAGCUAUUAAAUGGGUCGUGACUCAGUGCCUGGACGUGC
- binding result [1]: binds

B11: g7 (ssRNA)
RNA: GGGACGCUCACGUACGCUAACUUGAAGUCAAGGGUAGAGUGACCAUGCAGCUCGUAGACAUCAGUGCCUGGACGUGCAGU
- binding result [7]: binds
- binding result [5]: no binding

B12: g3 (ssRNA)
RNA: GGGACGCUCACGUACGCUAAGGGCGAAACUGUCGUGACACGGUUUGACAUGCCGGCCUUAUCAGUGCCUGGACGUGCAGU
- binding result [4]: binds
- binding result [5]: no binding

B13: g25 2'-F (ssRNA)
RNA: GGGACGCUCACGUACGCUAAUAGCAACAGUUCCCAGAGGUGAUCAGGCAGCCUUAAGACAUCAGUGCCUGGACGUGCAGU
modifications: 2'-F on all C and U
- binding result [3]: binds

Binder: GGGCACUGAGAGUUUGACCAGCUAUUAAAUGGGUCGUGACUCAGUG (ssRNA) [g1-trA]
- Kd [8]: 8.18 nM

B14: g36 (ssRNA)
RNA: GGGACGCUCACGUACGCUAACUUGAUUGGUCGCAACCGGACAAGGACGGGUUGAUGCAGUUCAGUGCCUGGACGUGCAGU
- binding result [2]: binds

B15: g9 (ssRNA)
RNA: GGGACGCUCACGUACGCUAAGAUGUCUCAAUUGGUCGUGAUUGUGCUGACCACACGAACCUCAGUGCCUGGACGUGCAGU
- binding result [9]: binds
- binding result [5]: no binding

Binder: GGGCUGAGAGUUUGACCAGCUAUUAAAUGGGUCGUGACUCAG (ssRNA) [g1-miniB]
- Kd [6]: 26.4 nM

B16: g8 (ssRNA)
RNA: GGGACGCUCACGUACGCUAAGGGCACUUAAAACCAGACCGUGAUUUGCGGUUGGUCUCGCUCAGUGCCUGGACGUGCAGU
- binding result [10]: binds
- binding result [5]: no binding

B17: g1-u5del (ssRNA)
RNA: GGGCACGUACGCUAAACACACUGAGAGUUUGACCAGCUAUUAAAUGGGUCGUGACUCAGUGCCUGGACGUGCAG
- binding result [1]: binds
